The supplement of paper PMC5998384

Assays:
[1] = test system: HeLa Kyoto; assay: melting temperature (median over replicates), in situ; higher = more thermally stable
[2] = test system: HeLa Kyoto; assay: thermal stability score vs G1/S (z-score of summed log2 fold changes over temperatures); higher = more thermally stable than in G1/S
[3] = test system: HeLa Kyoto; assay: solubility in G1/S (NP-40 vs SDS abundance) (log2 ratio); higher = more soluble; conditions: cell cycle stage: G1/S
[4] = test system: HeLa Kyoto; assay: solubility change mitosis vs G1/S (difference of NP-40 vs SDS log2 ratios) (log2 ratio difference); higher = more soluble in mitosis
[5] = cell cycle stage: early G1 (4.5 h after nocodazole release)
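For melting temperature (median over replicates), in situ in this document: HeLa Kyoto cells synchronized by double thymidine or nocodazole block, proteins quantified by TMT10plex mass spectrometry, three independent biological replicates.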
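For solubility change mitosis vs G1/S (difference of NP-40 vs SDS log2 ratios) in this document: synchronized HeLa Kyoto cells (double thymidine block for G1/S, nocodazole release for mitosis), protein amounts in NP-40 versus SDS lysates quantified by mass spectrometry, three biological replicates.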
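For solubility in G1/S (NP-40 vs SDS abundance) in this document: HeLa Kyoto cells arrested at G1/S by double thymidine block, proteins quantified by TMT10plex mass spectrometry in mild NP-40 versus SDS extracts, three biological replicates.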
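For thermal stability score vs G1/S (z-score of summed log2 fold changes over temperatures) in this document: synchronized HeLa Kyoto cells, proteins quantified by TMT10plex mass spectrometry, three biological replicates, mitosis taken 0.5 h after nocodazole release, G1/S directly after double thymidine block.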

Substance | melting temperature ([1]; cell cycle stage: G1/S) [°C] | melting temperature ([1]; cell cycle stage: mitosis) [°C] | thermal stability score [2, 5] | thermal stability score ([2]; cell cycle stage: mitosis) | solubility in G1/S (log2) [3] | solubility change mitosis (log2) [4]
MSHPSWLPPKSTGEPLGHVPARMETTHSFGNPSISVSTQQPPKKFAPVVAPKPKYNPYKQPGGEGDFLPPPPPPLDDSSALPSISGNFPPPPPLDEEAFKVQGNPGGKTLEERRSSLDAEIDSLTSILADLECSSPYKPRPPQSSTGSTASPPVSTPVTGHKRMVIPNQPPLTATKKSTLKPQPAPQAGPIPVAPIGTLKPQPQPVPASYTTASTSSRPTFNVQVKSAQPSPHYMAAPSSGQIYGSGPQGYNTQPVPVSGQCPPPSTRGGMDYAYIPPPGLQPEPGYGYAPNQGRYYEGYYAAGPGYGGRNDSDPTYGQQGHPNTWKREPGYTPPGAGNQNPPGMYPVTGPKKTYITDPVSAPCAPPLQPKGGHSGQLGPSSVAPSFRPEDELEHLTKKMLYDMENPPADEYFGRCARCGENVVGEGTGCTAMDQVFHVDCFTCIICNNKLRGQPFYAVEKKAYCEPCYINTLEQCNVCSKPIMERILRATGKAYHPHCFTCVMCHRSLDGIPFTVDAGGLIHCIEDFHKKFAPRCSVCKEPIMPAPGQEETVRIVALDRDFHVHCYRCEDCGGLLSEGDNQGCYPLDGHILCKTCNSARIRVLTAKASTDL | 55.6 | 54.4 | -2.33 | -1.52 | 0.203 | -0.115
MSELPGDVRAFLREHPSLRLQTDARKVRCILTGHELPCRLPELQVYTRGKKYQRLVRASPAFDYAEFEPHIVPSTKNPHQLFCKLTLRHINKCPEHVLRHTQGRRYQRALCKYEECQKQGVEYVPACLVHRRRRREDQMDGDGPRPREAFWEPTSSDEGGAASDDSMTDLYPPELFTRKDLGSTEDGDGTDDFLTDKEDEKAKPPREKATDEGRRETTVYRGLVQKRGKKQLGSLKKKFKSHHRKPKSFSSCKQPG [SURF2] | 50.7 | 50.3 | 0.779 | 0.703 | 0.0911 | 0.0916
MARGGRGRRLGLALGLLLALVLAPRVLRAKPTVRKERVVRPDSELGERPPEDNQSFQYDHEAFLGKEDSKTFDQLTPDESKERLGKIVDRIDNDGDGFVTTEELKTWIKRVQKRYIFDNVAKVWKDYDRDKDDKISWEEYKQATYGYYLGNPAEFHDSSDHHTFKKMLPRDERRFKAADLNGDLTATREEFTAFLHPEEFEHMKEIVVLETLEDIDKNGDGFVDQDEYIADMFSHEENGPEPDWVLSEREQFNEFRDLNKDGKLDKDEIRHWILPQDYDHAQAEARHLVYESDKNKDEKLTKEEILENWNMFVGSQATNYGEDLTKNHDEL [RCN1] | 55 | 56.4 | 1.52 | 1.33 | 0.419 | 0.0254
MRLGPRTAALGLLLLCAAAAGAGKAEELHYPLGERRSDYDREALLGVQEDVDEYVKLGHEEQQKRLQAIIKKIDLDSDGFLTESELSSWIQMSFKHYAMQEAKQQFVEYDKNSDDTVTWDEYNIQMYDRVIDFDENTALDDAEEESFRKLHLKDKKRFEKANQDSGPGLSLEEFIAFEHPEEVDYMTEFVIQEALEEHDKNGDGFVSLEEFLGDYRWDPTANEDPEWILVEKDRFVNDYDKDNDGRLDPQELLPWVVPNNQGIAQEEALHLIDEMDLNGDKKLSEEEILENPDLFLTSEATDYGRQLHDDYFYHDEL [RCN2] | 54.1 | 55.7 | 4.55 | 0.298 | 0.0519 | 0.0798
MFRFMRDVEPEDPMFLMDPFAIHRQHMSRMLSGGFGYSPFLSITDGNMPGTRPASRRMQQAGAVSPFGMLGMSGGFMDMFGMMNDMIGNMEHMTAGGNCQTFSSSTVISYSNTGDGAPKVYQETSEMRSAPGGIRETRRTVRDSDSGLEQMSIGHHIRDRAHILQRSRNHRTGDQEERQDYINLDESEAAAFDDEWRRETSRFRQQRPLEFRRLESSGAGGRRAEGPPRLAIQGPEDSPSRQSRRYDW [MLF2] | 46.2 |  | 1.43 | 5.61 | 0.236 | -0.0421
MDQPFTVNSLKKLAAMPDHTDVSLSPEERVRALSKLGCNITISEDITPRRYFRSGVEMERMASVYLEEGNLENAFVLYNKFITLFVEKLPNHRDYQQCAVPEKQDIMKKLKEIAFPRTDELKNDLLKKYNVEYQEYLQSKNKYKAEILKKLEHQRLIEAERKRIAQMRQQQLESEQFLFFEDQLKKQELARGQMRSQQTSGLSEQIDGSALSCFSTHQNNSLLNVFADQPNKSDATNYASHSPPVNRALTPAATLSAVQNLVVEGLRCVVLPEDLCHKFLQLAESNTVRGIETCGILCGKLTHNEFTITHVIVPKQSAGPDYCDMENVEELFNVQDQHDLLTLGWIHTHPTQTAFLSSVDLHTHCSYQLMLPEAIAIVCSPKHKDTGIFRLTNAGMLEVSACKKKGFHPHTKEPRLFSICKHVLVKDIKIIVLDLR [STAMBPL1] | 50.3 | 51 | -0.397 | -0.032 | -0.0141 | -0.137
MATAALLRGATPGRGGPVWRWRLRAAPRCRLAHSSCSPGGDPTAGAAWACFRLDGRTLLRVRGPDAAPFLLGLLTNELPLPSPAAAGAPPAARAGYAHFLNVQGRTLYDVILYGLQEHSEVSGFLLECDSSVQGALQKHLALYRIRRKVTVEPHPELRVWAVLPSSPEACGAASLQERAGAAAILIRDPRTARMGWRLLTQDEGPALVPGGRLGDLWDYHQHRYLQGVPEGVRDLPPGVALPLESNLAFMNGVSFTKGCYIGQELTARTHHMGVIRKRLFPVRFLDPLPTSGITPGATVLTASGQTVGKFRAGQGNVGLALLWSEKIKGPLHIRASEGAQVALAASVPDWWPTVSK [IBA57] | 52.8 | 52.4 | 0.0549 | -0.552 | -0.246 | 0.132
MFSVESLERAELCESLLTWIQTFNVDAPCQTVEDLTNGVVMAQVLQKIDPAYFDENWLNRIKTEVGDNWRLKISNLKKILKGILDYNHEILGQQINDFTLPDVNLIGEHSDAAELGRMLQLILGCAVNCEQKQEYIQAIMMMEESVQHVVMTAIQELMSKESPVSAGNDAYVDLDRQLKKTTEELNEALSAKEEIAQRCHELDMQVAALQEEKSSLLAENQVLMERLNQSDSIEDPNSPAGRRHLQLQTQLEQLQEETFRLEAAKDDYRIRCEELEKEISELRQQNDELTTLADEAQSLKDEIDVLRHSSDKVSKLEGQVESYKKKLEDLGDLRRQVKLLEEKNTMYMQNTVSLEEELRKANAARSQLETYKRQVVELQNRLSEESKKADKLDFEYKRLKEKVDSLQKEKDRLRTERDSLKETIEELRCVQAQEGQLTTQGLMPLGSQESSDSLAAEIVTPEIREKLIRLQHENKMLKLNQEGSDNEKIALLQSLLDDANLRKNELETENRLVNQRLLEVQSQVEELQKSLQDQGSKAEDSVLLKKKLEEHLEKLHEANNELQKKRAIIEDLEPRFNNSSLKIEELQEALRKKEEEMKQMEERYKKYLEKAKSVIRTLDPKQNQGAAPEIQALKNQLQERDRLFHSLEKEYEKTKSQREMEEKYIVSAWYNMGMTLHKKAAEDRLASTGSGQSFLARQRQATSSRRSYPGHVQPATAR [HOOK3] | 50.4 | 51 | 0.316 | 0.85 | 0.753 | -0.00542
MENHKSNNKENITIVDISRKINQLPEAERNLLENGSVYVGLNAALCGLIANSLFRRILNVTKARIAAGLPMAGIPFLTTDLTYRCFVSFPLNTGDLDCETCTITRSGLTGLVIGGLYPVFLAIPVNGGLAARYQSALLPHKGNILSYWIRTSKPVFRKMLFPILLQTMFSAYLGSEQYKLLIKALQLSEPGKEIH [TMEM126A] | 52.8 | 52.4 | -0.173 | -0.978 | 0.245 | -0.094
MFLLPLPAAGRVVVRRLAVRRFGSRSLSTADMTKGLVLGIYSKEKEDDVPQFTSAGENFDKLLAGKLRETLNISGPPLKAGKTRTFYGLHQDFPSVVLVGLGKKAAGIDEQENWHEGKENIRAAVAAGCRQIQDLELSSVEVDPCGDAQAAAEGAVLGLYEYDDLKQKKKMAVSAKLYGSGDQEAWQKGVLFASGQNLARQLMETPANEMTPTRFAEIIEKNLKSASSKTEVHIRPKSWIEEQAMGSFLSVAKGSDEPPVFLEIHYKGSPNANEPPLVFVGKGITFDSGGISIKASANMDLMRADMGGAATICSAIVSAAKLNLPINIIGLAPLCENMPSGKANKPGDVVRAKNGKTIQVDNTDAEGRLILADALCYAHTFNPKVILNAATLTGAMDVALGSGATGVFTNSSWLWNKLFEASIETGDRVWRMPLFEHYTRQVVDCQLADVNNIGKYRSAGACTAAAFLKEFVTHPKWAHLDIAGVMTNKDEVPYLRKGMTGRPTRTLIEFLLRFSQDNA [LAP3] | 53.8 | 52.6 | -5.49 | -3.93 | 0.187 | -0.0176
MSENLDNEGPKPMESCGQESSSALSCPTVSVPPAAPAALEEVEKEGAGAATGPGPQPGLYSYIRDDLFTSEIFKLELQNVPRHASFSDVRRFLGRFGLQPHKTKLFGQPPCAFVTFRSAAERDKALRVLHGALWKGRPLSVRLARPKADPMARRRRQEGESEPPVTRVADVVTPLWTVPYAEQLERKQLECEQVLQKLAKEIGSTNRALLPWLLEQRHKHNKACCPLEGVRPSPQQTEYRNKCEFLVGVGVDGEDNTVGCRLGKYKGGTCAVAAPFDTVHIPEATKQVVKAFQEFIRSTPYSAYDPETYTGHWKQLTVRTSRRHQAMAIAYFHPQKLSPEELAELKTSLAQHFTAGPGRASGVTCLYFVEEGQRKTPSQEGLPLEHVAGDRCIHEDLLGLTFRISPHAFFQVNTPAAEVLYTVIQDWAQLDAGSMVLDVCCGTGTIGLALARKVKRVIGVELCPEAVEDARVNAQDNELSNVEFHCGRAEDLVPTLVSRLASQHLVAILDPPRAGLHSKVILAIRRAKNLRRLLYVSCNPRAAMGNFVDLCRAPSNRVKGIPFRPVKAVAVDLFPQTPHCEMLILFERVEHPNGTGVLGPHSPPAQPTPGPPDNTLQETGTFPSS [TRMT2A] | 48.9 | 49.8 | 2.34 | 3.51 | -0.136 | 0.169
PIK3C2A | 49.3 | 48.6 | -0.0214 | 0.282 | -0.334 | -0.063
MLGAWAVEGTAVALLRLLLLLLPPAIRGPGLGVAGVAGAAGAGLPESVIWAVNAGGEAHVDVHGIHFRKDPLEGRVGRASDYGMKLPILRSNPEDQILYQTERYNEETFGYEVPIKEEGDYVLVLKFAEVYFAQSQQKVFDVRLNGHVVVKDLDIFDRVGHSTAHDEIIPMSIRKGKLSVQGEVSTFTGKLYIEFVKGYYDNPKVCALYIMAGTVDDVPKLQPHPGLEKKEEEEEEEEYDEGSNLKKQTNKNRVQSGPRTPNPYASDNSSLMFPILVAFGVFIPTLFCLCRL [MLEC] | 53.7 | 53.6 | 1.83 | 2.38 | -0.0175 | -0.0845
MSWAARPPFLPQRHAAGQCGPVGVRKEMHCGVASRWRRRRPWLDPAAAAAAAVAGGEQQTPEPEPGEAGRDGMGDSGRDSRSPDSSSPNPLPQGVPPPSPPGPPLPPSTAPSLGGSGAPPPPPMPPPPLGSPFPVISSSMGSPGLPPPAPPGFSGPVSSPQINSTVSLPGGGSGPPEDVKPPVLGVRGLHCPPPPGGPGAGKRLCAICGDRSSGKHYGVYSCEGCKGFFKRTIRKDLTYSCRDNKDCTVDKRQRNRCQYCRYQKCLATGMKREAVQEERQRGKDKDGDGEGAGGAPEEMPVDRILEAELAVEQKSDQGVEGPGGTGGSGSSPNDPVTNICQAADKQLFTLVEWAKRIPHFSSLPLDDQVILLRAGWNELLIASFSHRSIDVRDGILLATGLHVHRNSAHSAGVGAIFDRVLTELVSKMRDMRMDKTELGCLRAIILFNPDAKGLSNPSEVEVLREKVYASLETYCKQKYPEQQGRFAKLLLRLPALRSIGLKCLEHLFFFKLIGDTPIDTFLMEMLEAPHQLA [RXRB] | 47.6 | 49.1 | 0.348 | 0.163 | 0.264 | -0.14
